Target: tetanus toxoid (RIT, Smith Kline Beecham) (Clostridium tetani, UniProt P04958 2-1315)
Experiment: ELISA by the procedure of Friguet et al.

Chain of tetanus toxoid (RIT, Smith Kline Beecham) (P04958 2-457 limits assumed, chain 1 of 2): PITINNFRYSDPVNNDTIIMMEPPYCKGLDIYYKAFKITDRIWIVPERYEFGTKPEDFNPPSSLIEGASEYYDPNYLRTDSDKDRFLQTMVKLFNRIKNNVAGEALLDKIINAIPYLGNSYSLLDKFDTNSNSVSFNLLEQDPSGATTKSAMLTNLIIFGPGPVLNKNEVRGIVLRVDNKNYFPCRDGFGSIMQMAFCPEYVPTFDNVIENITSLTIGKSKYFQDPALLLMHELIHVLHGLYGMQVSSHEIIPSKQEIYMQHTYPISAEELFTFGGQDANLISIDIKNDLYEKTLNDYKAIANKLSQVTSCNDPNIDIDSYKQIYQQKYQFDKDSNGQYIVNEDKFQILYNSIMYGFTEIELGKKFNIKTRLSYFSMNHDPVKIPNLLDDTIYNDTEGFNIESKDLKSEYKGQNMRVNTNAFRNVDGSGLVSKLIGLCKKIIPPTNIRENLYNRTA
Chain of tetanus toxoid (RIT, Smith Kline Beecham) (P04958 458-1315 limits assumed, chain 2 of 2): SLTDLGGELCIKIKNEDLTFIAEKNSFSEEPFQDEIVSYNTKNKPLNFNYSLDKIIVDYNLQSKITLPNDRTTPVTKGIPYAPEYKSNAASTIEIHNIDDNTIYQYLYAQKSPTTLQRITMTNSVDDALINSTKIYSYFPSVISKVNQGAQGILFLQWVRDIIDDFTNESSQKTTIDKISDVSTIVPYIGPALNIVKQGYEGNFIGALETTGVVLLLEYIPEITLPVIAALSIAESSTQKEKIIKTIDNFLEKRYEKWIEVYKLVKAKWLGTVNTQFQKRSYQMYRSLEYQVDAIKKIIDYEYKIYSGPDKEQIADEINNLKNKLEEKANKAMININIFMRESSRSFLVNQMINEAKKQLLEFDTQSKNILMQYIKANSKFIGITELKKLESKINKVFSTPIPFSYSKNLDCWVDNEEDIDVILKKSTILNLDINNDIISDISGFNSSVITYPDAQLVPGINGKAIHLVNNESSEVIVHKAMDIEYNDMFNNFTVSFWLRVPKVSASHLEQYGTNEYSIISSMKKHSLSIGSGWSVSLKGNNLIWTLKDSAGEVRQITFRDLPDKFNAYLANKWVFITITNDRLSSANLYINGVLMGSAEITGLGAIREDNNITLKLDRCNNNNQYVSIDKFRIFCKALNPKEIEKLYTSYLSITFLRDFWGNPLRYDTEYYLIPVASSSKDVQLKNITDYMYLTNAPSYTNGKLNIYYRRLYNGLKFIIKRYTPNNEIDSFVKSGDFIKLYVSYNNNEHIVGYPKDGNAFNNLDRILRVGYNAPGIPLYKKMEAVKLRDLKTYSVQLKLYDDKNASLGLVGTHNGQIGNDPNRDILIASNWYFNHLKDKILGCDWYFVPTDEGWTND

Row | Binder | Ka [M⁻¹]
1 | camel VHH αTT2 (anti-tetanus toxoid) (VHH) VHH: EVQLQASGGGSVQAGGSLRLSCTAANYAFDSKTVGWFRQVPGKEREGVAGISSGGSTTAYSDSVKGRYTVSLENAKNTVYLLIDNLQPEDTAIYYCAGVSGWRGRQWLLLAETYRFWGQGTQVTVSS | 2e+07
2 | camel VHH αTT1 (anti-tetanus toxoid) (VHH) VHH: EVQLQASGGGSVQAGGSLRLSCAASGGQTFDSYAMAWFRQAPGKECELVSSIIGDDNRNYADSVKGRFTISRDNAKNTVYLQMDRLNPEDTAVYYCAQLGSARSAMYCAGQGTQVTVSS | 6e+07

From patent publication US7655759 (VRIJE UNIVERSITEIT BRUSSEL, dated 2010)
